The values below come from US20210332145A1 (SINGLE CELL TECHNOLOGY, published 2021).

As a reminder, the Kd is the constant that tells how readily two partners part at equilibrium. Read a low Kd as tighter binding. One may read the koff as the rate constant with which the complex falls apart. What is called kon is the rate constant with which the complex forms. As usually defined, the EC50 is the concentration that produces a half-maximal response.

The target of test [1] is T1, human BCMA with a His tag (ACROBiosystems, Catalog No.: BCA-H522y) (human).
T1 construct: Bought His-tagged recombinant protein; also called huBCMA-His; Recombinant human BCMA
T1 chain: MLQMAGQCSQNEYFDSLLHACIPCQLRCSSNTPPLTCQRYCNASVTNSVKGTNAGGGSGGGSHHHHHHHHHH
The experiment in a line: SPR, Biacore T200. On the procedure:
The binding affinity of select anti-BCMA was measured on a surface plasmon resonance (SPR) instrument, Biacore T200™, against human BCMA by a method known in the art.
In experiments performed essentially as described above, a subset of anti-human BCMA antibodies of the present disclosure bind human BCMA with a His tag (ACROBiosystems, Beijing, China, Catalog No.: BCA-H522y, SEQ ID NO:2) with affinity shown in Table 6.

For test [2], the target named is T2, BCMA on cells (293T cells transfected with BCMA; H929, MM.1S and U266 cell lines expressing BCMA) (human, UniProt Q02223 1-184).
T2 construct: H929, MM.1S and U266 carry the native protein; also called B-cell Maturation Antigen; TNFRSF17
T2 sequence: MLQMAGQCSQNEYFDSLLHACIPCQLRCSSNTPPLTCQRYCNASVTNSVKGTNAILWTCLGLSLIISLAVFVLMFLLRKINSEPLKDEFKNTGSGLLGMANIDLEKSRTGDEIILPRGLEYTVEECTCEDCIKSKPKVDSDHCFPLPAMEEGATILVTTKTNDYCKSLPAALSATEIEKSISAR
The experiment in a line: flow cytometry, H929 cells. On the procedure: A cell line expressing BCMA, H929, was used to assess binding by anti-BCMA antibodies on the native protein on the cell surface by flow cytometry according to the known art. A subset of anti-human BCMA antibodies were assayed for binding to H929 and the fraction of cells bound the labeled antibody above background defined by control is shown in Table 8.
(In general: In flow cytometry, cells or beads pass a laser one at a time.)

For test [3], the target named is T2, BCMA on cells (293T cells transfected …). The experiment in a line: flow cytometry, H929 cells. The source holds these as a separate data set.
Test [4] has as its target T1, human BCMA with a His tag …. The experiment in a line: ELISA, plate-coated human BCMA-His. On the procedure:
(§1) The recombinantly expressed antibodies were used to assess binding activity to BCMA of different species origins by conventional ELISA according to the known art. Recombinant human BCMA, cyno BCMA, and mouse BCMA were coated onto ELISA plates to detect binding at serially diluted concentrations of the anti-BCMA antibody preparations.
(§2) The ability for antibodies of the present disclosure to bind human BCMA was measured with an ELISA assay. For the BCMA binding assay, a 96-well plate (Nunc) is coated with human BCMA with a His tag (ACROBiosystems, Catalog No.: AC108P1-180611F2-Bulk, SEQ ID NO:2) at 0.2 μg/well overnight at 4° C. Wells are blocked for 2 h with blocking buffer (PBS containing 3% bovine serum albumin). Wells are washed three times with PBS containing 0.1% Tween-20. Anti-human BCMA antibodies of the present disclosure or control IgG (100 μL) is then added and incubated at room temperature for 1 h. After washing, the plate is incubated with 100 μL of goat anti-mouse IgG Fcγ Fragment Specific-HRP conjugate (Jackson ImmunoResearch) at room temperature for 1 h. The plates are washed and then incubated with 100 μL of 3,3′,5,5′-tetra-methylbenzidine. The absorbance at 450 nm is read on a microplate reader. The half maximal effective concentration (EC50) is calculated using GraphPad Prism 6 software.
In experiments performed essentially as described above, anti-human BCMA antibodies of the present disclosure bind human BCMA with a His tag (ACROBiosystems, Beijing, China, Catalog No.: BCA-H522y, SEQ ID NO:2) with an EC50 values shown in Table 3.
In general terms: ELISA stands for enzyme-linked immunosorbent assay.

Test [5] deals with T2, BCMA on cells (293T cells transfected …). As to the kind of experiment: flow cytometry, 293T cells transfected with BCMA, above parental 293T background.
Test [6] has as its target T3, mouse BCMA with a His tag (ACROBiosystems, Catalog No.: BCA-M52H3) (mouse).
T3 construct: Bought His-tagged recombinant protein
T3 chain: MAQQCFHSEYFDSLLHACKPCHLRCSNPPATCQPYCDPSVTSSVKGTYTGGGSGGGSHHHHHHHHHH
The experiment in a line: ELISA, plate-coated mouse BCMA-His. The protocol: as §1, §2
In experiments performed essentially as described above, anti-human BCMA antibodies of the present disclosure bind mouse BCMA with a His tag (ACROBiosystems, Beijing, China, Catalog No.: BCA-M52H3, SEQ ID NO:109) with an EC50 values shown in Table 5.

B1: SCT-Aa01(h/h) (antibody, V domains shown)
VH: DVQLQESGPGLVKPSQSLSLTCSVTGYSITSGYYWNWIRQFPGNKLEWMGYIRYDGSNNYNPSLKNRISITRDTSKNQFFLKLNSVTTEDTATYYCAPYDYDYAMDFWGQGTSVTVSS
VL: DIQMTQSPASLSASVGETVTITCRASGNIHNYLAWYQQKQGKSPQLLVYNAKTLAHGVPSRFSGSGSGTQYSLKITSLQPEDFGTYYCQHFWSTPFTFGSGTKLEIK
notes: Full IgG format, chimeric: human IgG1 heavy chain constant region, human kappa light chain constant region
In test [1], B1 returned a dissociation constant Kd of 43.4 nM, a koff of 0.0355 s⁻¹ and an on-rate constant (kon) of 819000 M⁻¹ s⁻¹. For the same molecule, the “Positive (%)” value in test [2] was found to be 55.2%. In test [3], this molecule returned a Mean fluorescent intensity of 411. The molecule also came in with an EC50 in test [4] of 3.38 ng/mL. The “Positive (%)” value in test [5] worked out at 12.3%.

B2: SCT-Aa08(h/h) (antibody, V domains shown)
VH: QVQLQQSDAELVKPGASVKISCKVSGYTFIDHTIHWMKQRPEQGLEWIGYIYPRIDSSKCNEKFKDKATLTADKSSNTAYIQLNSLTSEDSAVYFCARWDYEGFDYWGQGTTLTVSS
VL: DIVMTQSPATLSVTPGDRVSLSCRASQSISDYLHWYQQKSHESPRLLIKYASQSISGIPSRFSGSGSGSDFTLSINSVEPEDVGVYYCQNGHSFPPTFGSGTKLEIK
notes: as for B1
Regarding B2, in test [1], binding was put at a Kd of 17.6 nM, the koff came to 0.0592 s⁻¹ and the kon is 3.36e+06 M⁻¹ s⁻¹. Moreover, in test [2], the “Positive (%)” value was 92.5%. Further, the Mean fluorescent intensity in test [3] was found to be 454. Besides, the concentration giving a half-maximal response (EC50) in test [4] was determined as 3.74 ng/mL. In test [6], this molecule had an EC50 of 377 ng/mL. Moreover, the “Positive (%)” value in test [5] was 57.5%.

B3: SCT-Aa19(h/h) (antibody, V domains shown)
VH: QVQLQQSGPELVKPGASVRISCKASGCTFTDYYIHWVKQRPGQGLEWIGWIYPGNLNSKFNEKFRDKATLTADNSSSTAYMQLSSLTSEDSAVYFCARYNYEGYFDYWGQGTTLTVSS
VL: DIVMTQSPATLSVTPGDRVSLSCRASQSIADSLHWYQQKSHESPRLLIKYASHSISGIPSRFRGSGSGSDFTLSINSVEPEDVGVYYCQNGHSFPLTFGAGTKLELK
notes: as for B1
In the case of B3, in test [1], the dissociation constant (Kd) is 1.19 nM, the koff turned out to be 0.0062 s⁻¹ and the association rate constant (kon) came to 5.21e+06 M⁻¹ s⁻¹. In addition, the “Positive (%)” value in test [2] turned out to be 85.1%. The Mean fluorescent intensity in test [3] was 351. This molecule also yielded a concentration giving a half-maximal response (EC50) in test [4] of 3.38 ng/mL. Besides, the “Positive (%)” value in test [5] came to 51%.

B4: SCT-Aa11(h/h) (antibody, V domains shown)
VH: QVQLQQSDAELVKPGASVKISCKVSGYTFTDHTIHWMKQRPEQGLEWIGYIFPRDGTTKFNEMFKGKATLTADKSSSTAYMELNSLTSEDSAVYFCARWDYEGFDYWGQGTTLTVSS
VL: DIVMTQSPATLSVTPGDRVSLSCRASQSISDYLHWYQQKSHESPRLLIKYASQFISGIPSRFRGSGSGSDFTLSINSVEPEDVGVYYCQNGHSFPPTFGSGTKLEIK
notes: as for B1
In test [1], B4 yielded a Kd of 47.1 nM, a koff of 0.113 s⁻¹ and an on-rate constant (kon) of 2.4e+06 M⁻¹ s⁻¹. In test [2], the “Positive (%)” value is 53.7%. In test [3], this molecule displayed a Mean fluorescent intensity of 179. Further, the EC50 in test [4] amounted to 3.85 ng/mL. Moreover, in test [5], the “Positive (%)” value came out at 34.9%.

B5: SCT-Aa10(m/m) (antibody, V domains shown)
VH: QVQLQQSDAELVKPGASVKISCKVSGYTFTDHTIHWMKQRPEQGLEWIGYIFPRDGNTKYNEKFKGKATMTADKSSSTAYMQLNSLTSEDSAVYFCARWDYEGFDCWGQGTTLTVSS
VL: DIVMTQSPATLSVTPGDRVSLSCRASQSISDYLHWYQQKSHESPRLLIKYASQSISGIPSRFSGSGSGSDFTLSINSVEPEDVGVYFCQNGHSFPPTFGSGTKLEIK
notes: Full IgG format: mouse IgG1 heavy chain constant region, mouse kappa light chain constant region
In the case of B5, the Kd in test [1] came out at 9.56 nM. Also, in test [1], the koff was 0.0224 s⁻¹. Besides, the kon in test [1] came to 2.34e+06 M⁻¹ s⁻¹. For the same molecule, the figures for the “Positive (%)” value in test [2] and in test [5] were 99.9% and 82.9%, respectively. In test [3], this molecule displayed a Mean fluorescent intensity of 2960. Further, the concentration for a half-maximal effect (EC50) was 2.57 ng/mL in test [4] and 8030 ng/mL in test [6].

B6: SCT-Aa10(h/h) (antibody, V domains shown)
VH: QVQLQQSDAELVKPGASVKISCKVSGYTFTDHTIHWMKQRPEQGLEWIGYIFPRDGNTKYNEKFKGKATMTADKSSSTAYMQLNSLTSEDSAVYFCARWDYEGFDCWGQGTTLTVSS
VL: DIVMTQSPATLSVTPGDRVSLSCRASQSISDYLHWYQQKSHESPRLLIKYASQSISGIPSRFSGSGSGSDFTLSINSVEPEDVGVYFCQNGHSFPPTFGSGTKLEIK
notes: as for B1
In test [1], B6 yielded a Kd of 9.17 nM. The koff in test [1] came out at 0.0284 s⁻¹. In test [1], this molecule gave an on-rate (kon) of 3.1e+06 M⁻¹ s⁻¹. In addition, the “Positive (%)” value in test [2] worked out at 85.5%; in test [5] it was 57.9%. For the same molecule, the Mean fluorescent intensity in test [3] is 495. Further, the concentration for a half-maximal effect (EC50) in test [4] was found to be 2.86 ng/mL; in test [6], 941 ng/mL.

B7: SCT-Aa08(m/m) (antibody, V domains shown)
VH: QVQLQQSDAELVKPGASVKISCKVSGYTFIDHTIHWMKQRPEQGLEWIGYIYPRIDSSKCNEKFKDKATLTADKSSNTAYIQLNSLTSEDSAVYFCARWDYEGFDYWGQGTTLTVSS
VL: DIVMTQSPATLSVTPGDRVSLSCRASQSISDYLHWYQQKSHESPRLLIKYASQSISGIPSRFSGSGSGSDFTLSINSVEPEDVGVYYCQNGHSFPPTFGSGTKLEIK
notes: as for B5
In test [1], B7 came in with a Kd of 15.7 nM, a koff of 0.0527 s⁻¹ and an association rate constant (kon) of 3.36e+06 M⁻¹ s⁻¹. Moreover, the “Positive (%)” value in test [2] worked out at 99.9%. Also, the Mean fluorescent intensity in test [3] was 1820. In test [4], this molecule displayed an EC50 of 2.46 ng/mL. This molecule came in with a concentration giving a half-maximal response (EC50) in test [6] of 682 ng/mL. In addition, the “Positive (%)” value in test [5] was 70.6%.

B8: SCT-Aa11(m/m) (antibody, V domains shown)
VH: QVQLQQSDAELVKPGASVKISCKVSGYTFTDHTIHWMKQRPEQGLEWIGYIFPRDGTTKFNEMFKGKATLTADKSSSTAYMELNSLTSEDSAVYFCARWDYEGFDYWGQGTTLTVSS
VL: DIVMTQSPATLSVTPGDRVSLSCRASQSISDYLHWYQQKSHESPRLLIKYASQFISGIPSRFRGSGSGSDFTLSINSVEPEDVGVYYCQNGHSFPPTFGSGTKLEIK
notes: as for B5
In the case of B8, in test [1], the Kd worked out at 42 nM, the koff came out at 0.0945 s⁻¹ and the kon is 2.25e+06 M⁻¹ s⁻¹. Further, in test [2], the “Positive (%)” value came out at 99.9%. Besides, the Mean fluorescent intensity in test [3] was 1520. The same molecule showed an EC50 in test [4] of 2.38 ng/mL. Further, the “Positive (%)” value in test [5] amounted to 34.6%.

B9: SCT-Aa06(m/m) (antibody, V domains shown)
VH: EVQLQQSGPELVKPGNSVKISCKASGYSFTGYFMNWVMQSHGKSLEWIGRINPYNGDTFYNQKFKGKATLTVDKSSSTAHMELRSLTSEDSAVYYCARLDYTNYNSYPMDYWGQGTSVTVSS
VL: DIQMTHTTSSLSASLGDRVTISCSASQGISNYLNWYLQKPDGTVKLLIYYTSNLHSGVPSRFSGSGSGTDFSLTISNLQPEDIATYYCQQYSKFPWTFGGGTKLEIK
notes: as for B5
In test [1], B9 registered a Kd of 5.16 nM, a dissociation rate constant (koff) of 0.0163 s⁻¹ and a kon of 3.15e+06 M⁻¹ s⁻¹. Also, in test [2], the “Positive (%)” value is 99.9%. Moreover, in test [3], the Mean fluorescent intensity turned out to be 4300. The half-maximal effective concentration (EC50) in test [4] stood at 2.34 ng/mL. In test [5], the “Positive (%)” value worked out at 91.6%.
